This note sets out measurements from the Human Domainome abundance scans (Beltran et al. 2025).

The chains are these.
B1: Zinc finger MYM-type protein 3, residues 589 to 668; numbered along this chain, Q14202 (parent)
chain: LSCHYCHSLFSGKPEVLDWQDQVFQFCCRDCCEDFKRLRGVVSQCEHCRQEKLLHEKLRFSGVEKSFCSEGCVLLYKQDF

± gives the uncertainty stated by the source.

Variants of B1 are the subject of this data set. The data set can be described thus: abundance fitness (aPCA) (normalised: wild type 0, dead -1); higher = more abundant; growth selection in yeast, the domain comes from the species named. Particulars: Homo sapiens.
For the variant W19Y, the abundance fitness amounted to 0.269 ± 0.075.
Take F80R: the abundance fitness stood at 0.522 ± 0.082.
The result for F80S reads 0.194 ± 0.14; that for F80W, -0.146 ± 0.38.
Then F80A, with 0.288 ± 0.16; and F67T, with -0.614 ± 0.18; and F67L, with -0.852 ± 0.21.
The result for F67R reads -0.497 ± 0.12; that for P14M, -0.169 ± 0.065; that for P14A, -0.223 ± 0.045.
As for E15C, the abundance fitness stood at 0.008 ± 0.052.
The result for E15A reads -0.075 ± 0.051.
Then D18E, with -0.06 ± 0.054.
The result for D18K reads -0.028 ± 0.069; that for D18A, -0.007 ± 0.047.
D18P: the abundance fitness is 0.236 ± 0.047.
The result for D18C reads -0.107 ± 0.088; that for F26A, -0.49 ± 0.053; that for S66Y, 0.382 ± 0.16.
The result for S66E reads -0.473 ± 0.18.
Regarding L1A, the abundance fitness was -0.012 ± 0.16.
Take L1G: the abundance fitness was -0.034 ± 0.056.
The result for L1R reads -0.439 ± 0.076; that for L1I, 0.363 ± 0.071.
The result for L1S reads -0.206 ± 0.056; that for F24G, -0.136 ± 0.042; that for F24P, -0.383 ± 0.068.
Then F24Q, with -0.038 ± 0.046; and F24L, with 0.203 ± 0.041.
On to F24N, for which the abundance fitness stood at 0.001 ± 0.083.
On to H4K, for which the abundance fitness came out at 0.179 ± 0.051.
For H4D, the abundance fitness turned out to be 0.128 ± 0.052.
The result for H4S reads 0.248 ± 0.043; that for H4P, -0.061 ± 0.048.
For H4V, the abundance fitness stood at 0.054 ± 0.04.
Then H4M, with 0.227 ± 0.044; and G71V, with -0.043 ± 0.11; and G71L, with -0.105 ± 0.1.
The result for G71S reads 0.453 ± 0.1; that for G71H, -0.037 ± 0.32; that for G71W, -0.219 ± 0.22.
The result for C72M reads -0.514 ± 0.28; that for F10E, -0.691 ± 0.08; that for F10Y, -0.191 ± 0.093.
With F10Q, the abundance fitness is -0.685 ± 0.065.
Then F10P, with -0.052 ± 0.048; and K36L, with -0.101 ± 0.041; and K36E, with -0.01 ± 0.044.
Then K36P, with -0.615 ± 0.093; and S69K, with -0.282 ± 0.26.
On to S69V, for which the abundance fitness was -0.534 ± 0.17.
On to S69I, for which the abundance fitness is -0.15 ± 0.36.
Regarding D79R, the abundance fitness came to 0.351 ± 0.11.
The result for D79G reads 0.187 ± 0.074; that for D79W, -0.378 ± 0.19.
Then D79Q, with 0.475 ± 0.17; and D79L, with 0.034 ± 0.13; and E46T, with 0.24 ± 0.22.
Regarding L17V, the abundance fitness is -0.027 ± 0.044.
For the variant L17G, the abundance fitness is -0.135 ± 0.041.
Then L17Y, with -0.202 ± 0.14; and L17Q, with -0.015 ± 0.068.
Then L75M, with 0.176 ± 0.41; and L75S, with 0.258 ± 0.11.
Then E33Y, with -0.173 ± 0.088.
Take E33A: the abundance fitness is -0.037 ± 0.04.
On to E33L, for which the abundance fitness was -0.171 ± 0.042.
Then K52V, with -0.478 ± 0.22; and H47Q, with 0.151 ± 0.15; and H47E, with -0.406 ± 0.16.
Then H47L, with -0.388 ± 0.14; and L9M, with -0.097 ± 0.053.
The result for L9N reads -0.121 ± 0.056; that for L9Q, 0.093 ± 0.045; that for Q25C, -0.081 ± 0.062.
Q25G: the abundance fitness came to 0.088 ± 0.039.
Then L54A, with -0.41 ± 0.16.
The result for L54R reads -0.664 ± 0.14; that for L54G, -0.536 ± 0.095; that for L54S, -0.542 ± 0.16.
Then R29P, with 0.068 ± 0.056; and R29E, with 0.013 ± 0.045; and G62L, with -1.05 ± 0.27.
As for G62W, the abundance fitness is -0.85 ± 0.22.
The result for C31T reads -1.02 ± 0.15.
Then H55N, with 0.027 ± 0.24; and H55I, with 0.199 ± 0.35; and H55E, with -0.392 ± 0.14.
The result for K77Q reads -0.149 ± 0.38; that for K77R, -0.455 ± 0.14.
For the variant E64Q, the abundance fitness was -0.363 ± 0.18.
The result for R37C reads -0.374 ± 0.21.
Then R37E, with -0.084 ± 0.18.
Then R37G, with -0.045 ± 0.061.
R37A: the abundance fitness is 0.057 ± 0.16.
Then R37W, with -0.065 ± 0.27.
Then V16F, with -0.229 ± 0.12.
The result for V16N reads -0.033 ± 0.1.
Take V16D: the abundance fitness was -0.702 ± 0.2.
On to V16R, for which the abundance fitness turned out to be 0.004 ± 0.043.
For the variant V73E, the abundance fitness is -0.027 ± 0.17.
The result for V73R reads 0.149 ± 0.082; that for V73L, 0.268 ± 0.11.
The result for Y76W reads -0.542 ± 0.22; that for Y76L, -0.663 ± 0.24; that for Y5D, -0.615 ± 0.07.
Then Y5R, with 0.19 ± 0.037.
With Y5P, the abundance fitness was -0.906 ± 0.076.
Then C48W, with -0.329 ± 0.16; and C48T, with -1.05 ± 0.46; and S61A, with 0.284 ± 0.12.
On to S61Q, for which the abundance fitness was -0.12 ± 0.17.
On to V42T, for which the abundance fitness worked out at 0.388 ± 0.12.
Then R59D, with 0.257 ± 0.11; and R59A, with 0.22 ± 0.089; and R59V, with 0.306 ± 0.12.
The result for R59G reads -0.261 ± 0.1.
As for K13F, the abundance fitness was -0.135 ± 0.067.
Regarding K13A, the abundance fitness is -0.037 ± 0.051.
Turning to K13E, the abundance fitness is -0.001 ± 0.052.
The result for K13G reads -0.162 ± 0.044; that for K13M, -0.444 ± 0.15.
Then K13V, with -0.169 ± 0.047; and K13R, with 0.05 ± 0.046.
Regarding V63L, the abundance fitness is -0.074 ± 0.18.
For D34Y, the abundance fitness is 0.105 ± 0.083.
In the case of D34K, the abundance fitness is -0.008 ± 0.063.
The result for D34H reads -0.057 ± 0.071.
The result for D34Q reads -0.136 ± 0.05.
Then D34P, with -0.384 ± 0.076; and E70R, with -0.687 ± 0.31.
Turning to E70D, the abundance fitness is 0 ± 0.5.
Then Q20W, with 0.014 ± 0.053.
On to S8K, for which the abundance fitness amounted to 0.486 ± 0.044.
On to S8N, for which the abundance fitness was 0.297 ± 0.072.
The result for L58C reads -0.179 ± 0.28.
The result for E51L reads -0.119 ± 0.12; that for E51W, 0.537 ± 0.098.
The result for Q78W reads -0.698 ± 0.21.
As for Q78P, the abundance fitness was -0.595 ± 0.21.
Then Q78S, with 0.069 ± 0.15.
Then Q78T, with -0.188 ± 0.17; and S2H, with 0.281 ± 0.055.
Consider S2M, for which the abundance fitness worked out at 0.243 ± 0.051.
The result for S2D reads 0.412 ± 0.055; that for S2P, -0.39 ± 0.061.
The result for C32F reads -0.237 ± 0.09.
The result for C32A reads -0.026 ± 0.042; that for C32G, -0.253 ± 0.042; that for C32R, -0.176 ± 0.04.
Take C68M: the abundance fitness was -0.505 ± 0.32.
The result for L53G reads -0.445 ± 0.089; that for S43F, -0.144 ± 0.3.
For S43Q, the abundance fitness is -0.339 ± 0.18.
The result for S43P reads -0.496 ± 0.3; that for E56P, -0.288 ± 0.26; that for E56V, 0.548 ± 0.082.
Then E56L, with 0.131 ± 0.12; and E56T, with -0.091 ± 0.29; and C28H, with -0.081 ± 0.11.
As to C28K, the abundance fitness was 0.105 ± 0.063.
In the case of C27A, the abundance fitness was -0.673 ± 0.055.
For the variant C27K, the abundance fitness is -0.882 ± 0.096.
Then C27V, with -0.692 ± 0.06; and Q22N, with 0.255 ± 0.059; and Q22K, with -0.075 ± 0.058.
Then Q22H, with 0.269 ± 0.077.
